Data published in PMC2752052.

Substrate: NC(=O)c1ccc[n+]([C@@H]2O[C@H](COP(=O)([O-])OP(=O)(O)OC[C@H]3O[C@@H](n4cnc5c(N)ncnc54)[C@H](O)[C@@H]3O)[C@@H](O)[C@H]2O)c1
Test: purified protein
Type: biochemical, Homo sapiens

B1: Sirt1 (Homo sapiens) (protein)
chain: ADEAALALQPGGSPSAAGADREAASSPAGEPLRKRPRRDGPGLERSPGEPGGAAPEREVPAAARGCPGAAAAALWREAEAEAAAAGGEQEAQATAAAGEGDNGPGLQGPSREPPLADNLYDEDDDDEGEEEEEAAAAAIGYRDNLLFGDEIITNGFHSCESDEEDRASHASSSDWTPRPRIGPYTFVQQHLMIGTDPRTILKDLLPETIPPPELDDMTLWQIVINILSEPPKRKKRKDINTIEDAVKLLQECKKIIVLTGAGVSVSCGIPDFRSRDGIYARLAVDFPDLPDPQAMFDIEYFRKDPRPFFKFAKEIYPGQFQPSLCHKFIALSDKEGKLLRNYTQNIDTLEQVAGIQRIIQCHGSFATASCLICKYKVDCEAVRGDIFNQVVPRCPRCPADEPLAIMKPEIVFFGENLPEQFHRAMKYDKDEVDLLIVIGSSLKVRPVALIPSSIPHEVPQILINREPLPHLHFDVELLGDCDVIINELCHRLGGEYAKLCCNPVKLSEITEKPPRTQKELAYLSELPPTPLHVSEDSSSPERTSPPDSSVIVTLLDQAAKSNDDLDVSESKGCMEEKPQEVQTSRNVESIAEQMENPDLKNVGSSTGEKNERTSVAGTVRKCWPNRVAKEQISRRLDGNQYLFLPPNRYIFHGAEVYSDSEDDVLSSSSCGSNSDSGTCQSPSLEEPMEDESEIEEFYNGLEDEPDVPERAGGAGFGTDGDDQEAINEAISVKQEVTDMNYPSNKS
Protein B1 has a Km of 171 ± 23 µM.
